From the supplement of paper PMC9112550, “Optimization of the antimicrobial peptide Bac7 by deep mutational scanning” (BMC Biology, 2022)

System: Escherichia coli TOP10
Experiment: shrunken log2 fold change of peptide-encoding DNA abundance (4.5 h post-induction vs induction); higher = less antimicrobial activity (less host growth inhibition)
Conditions: time post-induction: 4.5 h; library: site-saturation at positions 5, 18, 19, 20
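Also: peptides expressed intracellularly from a pBAD plasmid library in pooled LB shake-flask culture, induced with 0.3% L-arabinose, DNA abundance read by NGS, three biological replicates, DESeq2 with apeglm shrinkage.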

Row | Sequence | shrunken log2 fold change
1 | RRIRHRPPRLPRPRPRPLYRPRP | -0.343
2 | RRIRNRPPRLPRPRPRPLIQPRP | -0.327
3 | RRIRYRPPRLPRPRPRPYRIPRP | -0.731
4 | RRIRQRPPRLPRPRPRPMCWPRP | -0.00818
5 | RRIRGRPPRLPRPRPRPGRVPRP | 0.554
6 | RRIRKRPPRLPRPRPRPVWVPRP | 0.15
7 | RRIRQRPPRLPRPRPRPRVGPRP | 0.71
8 | RRIRYRPPRLPRPRPRPRLIPRP | -0.466
9 | RRIRERPPRLPRPRPRPPYCPRP | -0.275
10 | RRIRIRPPRLPRPRPRPTSRPRP | -0.0459
11 | RRIRVRPPRLPRPRPRPTCMPRP | -0.125
12 | RRIRKRPPRLPRPRPRPRFQPRP | -0.00313
13 | RRIRERPPRLPRPRPRPGDTPRP | -0.943
14 | RRIRNRPPRLPRPRPRPLMSPRP | -0.316
15 | RRIRKRPPRLPRPRPRPWPVPRP | 0.47
16 | RRIRNRPPRLPRPRPRPYQWPRP | -0.098
17 | RRIRPRPPRLPRPRPRPYNLPRP | -0.708
18 | RRIRLRPPRLPRPRPRPSIHPRP | -0.619
19 | RRIRYRPPRLPRPRPRPQGGPRP | 0.0299
20 | RRIRKRPPRLPRPRPRPICDPRP | 0.0999
21 | RRIRCRPPRLPRPRPRPTHVPRP | 0.437
22 | RRIRERPPRLPRPRPRPYNMPRP | 0.0461
23 | RRIRQRPPRLPRPRPRPPTWPRP | -0.0557
24 | RRIRIRPPRLPRPRPRPCNTPRP | -0.0252
25 | RRIRTRPPRLPRPRPRPYNNPRP | -0.429

Row | Sequence | shrunken log2 fold change
26 | RRIRIRPPRLPRPRPRPGRDPRP | 0.0442
27 | RRIRIRPPRLPRPRPRPYFRPRP | -0.0907
28 | RRIRDRPPRLPRPRPRPCTEPRP | 0.373
29 | RRIRPRPPRLPRPRPRPTKLPRP | -0.0235
30 | RRIRIRPPRLPRPRPRPEKTPRP | -0.0512
31 | RRIRGRPPRLPRPRPRPIVSPRP | 0.158
32 | RRIRKRPPRLPRPRPRPHHVPRP | -0.348
33 | RRIRRRPPRLPRPRPRPRSYPRP | 0.0753
34 | RRIRPRPPRLPRPRPRPWGIPRP | -0.0138
35 | RRIRLRPPRLPRPRPRPSCKPRP | 0.0208
36 | RRIRMRPPRLPRPRPRPCYCPRP | -0.289
37 | RRIRHRPPRLPRPRPRPDANPRP | 0.152
38 | RRIRARPPRLPRPRPRPYDFPRP | -0.772
39 | RRIRPRPPRLPRPRPRPFYCPRP | -0.212
40 | RRIRLRPPRLPRPRPRPVMDPRP | -0.0398
41 | RRIRIRPPRLPRPRPRPFQVPRP | 0.0102
42 | RRIRKRPPRLPRPRPRPDGFPRP | 0.0522
43 | RRIRYRPPRLPRPRPRPIWGPRP | -0.0267
44 | RRIRERPPRLPRPRPRPPWFPRP | 0.0508
45 | RRIRKRPPRLPRPRPRPIGCPRP | -0.000243
46 | RRIRWRPPRLPRPRPRPERHPRP | 0.277
47 | RRIRNRPPRLPRPRPRPQLAPRP | -0.123
48 | RRIRFRPPRLPRPRPRPTSWPRP | 0.3
49 | RRIRVRPPRLPRPRPRPLANPRP | -0.0581
50 | RRIRERPPRLPRPRPRPKIQPRP | -0.259

Row | Sequence | shrunken log2 fold change
51 | RRIRVRPPRLPRPRPRPEISPRP | -0.122
52 | RRIRPRPPRLPRPRPRPDQQPRP | -0.0644
53 | RRIRTRPPRLPRPRPRPNPAPRP | 0.147
54 | RRIRNRPPRLPRPRPRPPETPRP | 0.314
55 | RRIRYRPPRLPRPRPRPHYPPRP | -1.84
56 | RRIRSRPPRLPRPRPRPWFTPRP | -0.253
57 | RRIRKRPPRLPRPRPRPGKRPRP | 0.285
58 | RRIRFRPPRLPRPRPRPPMQPRP | 0.115
59 | RRIRERPPRLPRPRPRPFIWPRP | 0.0296
60 | RRIRKRPPRLPRPRPRPVPDPRP | 0.418
61 | RRIRRRPPRLPRPRPRPPQDPRP | 1.39
62 | RRIRYRPPRLPRPRPRPLDLPRP | -0.0215
63 | RRIRPRPPRLPRPRPRPWLHPRP | -0.173
64 | RRIRHRPPRLPRPRPRPWFDPRP | -0.0263
65 | RRIRHRPPRLPRPRPRPWFMPRP | -0.474
66 | RRIRRRPPRLPRPRPRPWILPRP | -0.0248
67 | RRIRRRPPRLPRPRPRPKDYPRP | -0.485
68 | RRIRGRPPRLPRPRPRPRHAPRP | 1.05
69 | RRIRPRPPRLPRPRPRPYLMPRP | -0.58
70 | RRIRHRPPRLPRPRPRPLHPPRP | -0.148
71 | RRIRDRPPRLPRPRPRPRECPRP | 0.0105
72 | RRIRMRPPRLPRPRPRPHQGPRP | 0.013
73 | RRIRMRPPRLPRPRPRPFRAPRP | 0.452
74 | RRIRIRPPRLPRPRPRPMCTPRP | -0.0274
75 | RRIRGRPPRLPRPRPRPSLRPRP | 0.57

Row | Sequence | shrunken log2 fold change
76 | RRIRLRPPRLPRPRPRPNPDPRP | 0.0991
77 | RRIRSRPPRLPRPRPRPPKGPRP | 0.144
78 | RRIRQRPPRLPRPRPRPIRWPRP | -0.0554
79 | RRIRLRPPRLPRPRPRPFKHPRP | -0.156
80 | RRIRMRPPRLPRPRPRPQKFPRP | -0.000921
81 | RRIRVRPPRLPRPRPRPGLSPRP | 0.32
82 | RRIRMRPPRLPRPRPRPTQDPRP | 1.24
83 | RRIRGRPPRLPRPRPRPMNCPRP | 0.0167
84 | RRIRQRPPRLPRPRPRPLTTPRP | 0.106
85 | RRIRTRPPRLPRPRPRPFLNPRP | -0.183
86 | RRIRPRPPRLPRPRPRPPIAPRP | 0.27
87 | RRIRTRPPRLPRPRPRPTEAPRP | 0.0502
88 | RRIRKRPPRLPRPRPRPDDHPRP | 0.0199
89 | RRIRHRPPRLPRPRPRPEDTPRP | 0.0437
90 | RRIRPRPPRLPRPRPRPMYEPRP | -0.527
91 | RRIRCRPPRLPRPRPRPVIIPRP | -1.28
92 | RRIRYRPPRLPRPRPRPEFIPRP | -0.628
93 | RRIRYRPPRLPRPRPRPRSCPRP | -0.434
94 | RRIRNRPPRLPRPRPRPFVFPRP | -0.0679
95 | RRIRPRPPRLPRPRPRPARPPRP | 0.626
96 | RRIRTRPPRLPRPRPRPITLPRP | -0.162
97 | RRIRARPPRLPRPRPRPWADPRP | 0.0394
98 | RRIRKRPPRLPRPRPRPWSPPRP | 0.0668
99 | RRIRKRPPRLPRPRPRPVGAPRP | 0.853
100 | RRIRKRPPRLPRPRPRPNKTPRP | -0.227

Row | Sequence | shrunken log2 fold change
101 | RRIRARPPRLPRPRPRPMKNPRP | 0.0488
102 | RRIRVRPPRLPRPRPRPKNEPRP | 0.00832
103 | RRIRARPPRLPRPRPRPEAGPRP | 1.5
104 | RRIRGRPPRLPRPRPRPGQWPRP | 0.356
105 | RRIRKRPPRLPRPRPRPGDSPRP | 0.163
106 | RRIRDRPPRLPRPRPRPGNKPRP | -0.0705
107 | RRIRQRPPRLPRPRPRPQEQPRP | -0.000777
108 | RRIRDRPPRLPRPRPRPTYVPRP | -0.0733
109 | RRIRWRPPRLPRPRPRPTQFPRP | 0.0858
110 | RRIRQRPPRLPRPRPRPYHDPRP | 0.015
111 | RRIRVRPPRLPRPRPRPMGWPRP | 0.202
112 | RRIRWRPPRLPRPRPRPWATPRP | 0.168
113 | RRIRWRPPRLPRPRPRPNRGPRP | 0.172
114 | RRIRVRPPRLPRPRPRPGQRPRP | 0.0272
115 | RRIRRRPPRLPRPRPRPLVFPRP | -0.0441
116 | RRIRARPPRLPRPRPRPKPDPRP | 0.582
117 | RRIRERPPRLPRPRPRPMLSPRP | -0.376
118 | RRIRPRPPRLPRPRPRPLDMPRP | -0.142
119 | RRIRCRPPRLPRPRPRPSLFPRP | -0.293
120 | RRIRIRPPRLPRPRPRPRADPRP | 0.0888
121 | RRIRSRPPRLPRPRPRPFMKPRP | -0.205
122 | RRIRPRPPRLPRPRPRPNYYPRP | -0.468
123 | RRIRCRPPRLPRPRPRPCPGPRP | -0.191
124 | RRIRSRPPRLPRPRPRPIPKPRP | 0.125
125 | RRIRKRPPRLPRPRPRPPRDPRP | 1.01
